# Measured values published in PMC6336734.
# Target: Recombinant PP35 gp156 tail spike protein (Dickeya bacteriophage PP35)
# Test: SEC
substance,measurement,value
Recombinant PP35 gp156 tail spike protein (natural protein),stoichiometry N,3
